Experimental data published in patent publication US9833497B2, “Human originated EGF domain proteins and use of the same” (CHENGDU SOURCEBIO LIMITED-LIABILITY COMPANY, priority 2013, dated 2017).

B1: PRT588 (protein, listed as Homo sapiens)
chain: CDCNGHSETCHFDPAVFAASQGAYGGVCDNCRDHTEGKNCERCQLHYFRNRRPGASIQETCIS
B2: PRT551 (protein, listed as Homo sapiens)
chain: CNCYGHATDCYYDPEVDRRRASQSLDGTYQGGGVCIDCQHHTTGVNCERCLPGFYRSPNHPLDSPHVCRR
B3: PRT587 (protein, listed as Homo sapiens)
chain: CFCHGHADRCAPKPGASAGPSTAVQVHDVCVCQHNTAGPNCERCAPFYNNRPWRPAEGQDAHECQR
B4: PRT477 (protein, listed as Homo sapiens)
chain: LCSQALCSGHGRCVRRTSHPKALLLLNPASFSIQLTPGGGPLSLRGALSLGDQAQMAVEFKCRCYPGWQAPWCE
B5: PRT593 (protein, listed as Homo sapiens)
chain: CFCNGHASECRPMQKMRGDVFSPPGMVHGQCVCQHNTDGPNCERCKDFFQDAPWRPAADLQDNACRS
B6: PRT1459 (protein, listed as Homo sapiens)
chain: CQCNSHSKSCHYNISVDPFPFEHFRGGGGVCDDCEHNTTGRNCELCKDYFFRQVGADPSAIDVCKP
B7: PRT480 (protein, listed as Homo sapiens)
chain: VCSLHLCRNNGRCIRKMWNAPSYLHLNPASYHIEASEDGEFTVKGKASDTDLAVMADTFSCHCYQGYEGADCR
B8: PRT529 (protein, listed as Homo sapiens)
chain: CNCHGHASNCYYDPDVERQQASLNTQGIYAGGGVCINCQHNTAGVNCEQCAKGYYRPYGVPVDAPDGCIP
B9: PRT1182 (protein, listed as Homo sapiens)
chain: PREPCPGGACRVIDGCGSDAGPGMPGTAASGVCGPHGRCVSQPGGNFSCICDSGFTGTYCH
B10: PRT499 (protein, listed as Homo sapiens)
chain: CNCHNKAKDCYYDESVAKQKKSLNTAGQFRGGGVCINCLQNTMGINCETCIDGYYRPHKVSPYEDEPCRP
B11: PRT514 (protein, listed as Homo sapiens)
chain: CNCHGKAEECYYDENVARRNLSLNIRGKYIGGGVCINCTQNTAGINCETCTDGFFRPKGVSPNYPRPCQP

What was measured:
Format in all cases: cell-based
E. coli BL21 = assay: MIC against Gram-negative bacteria: E. coli BL21; conditions: 5×10^5 CFU/mL
Description: (§1) 1. Gram-negative bacteria, such as E. coli BL21, Pseudomonas aeruginosa, Klebsiella pneumonia, Enterobacter cloacae, Aeromonas hydrophila, Citrobacter diversus, Moraxella catarrhalis, Proteus mirabilis, Proteus vulgaris, Serratia marcescens, etc were streaked on solid LB medium and cultured respectively. Then, typical clones were picked, inoculated into common liquid LB medium respectively, and cultured at 37° C. with shaking at 185 rpm until the McFarland specific turbidity was 0.5. The bacterial culture of each of Gram-negative bacteria was centrifuged at 4000×g for 3 min, the supernatant was discarded, and the thalli were resuspended with fresh LB medium.
(§2) 2. The above-mentioned bacterial suspensions were diluted and inoculated into 96-well plates with the final concentration of the bacterial suspension being 5×10^5 CFU/mL per well.
(§3) 3. Each of the purified human-originated EGF domain proteins (PRT1 to PRT1498 in Table 1) was added to each of the above wells and subjected to two-fold serial dilution in concentration. Three parallel wells were set up for each concentration in the gradient.
(§4) 4. The above-mentioned 96-well plates were placed and cultured at 37° C. in shaking incubator shaking at 175 rpm. […] The minimal inhibitory concentration MIC is defined as the lowest concentration of the recombinant protein at which there is no growth of the bacteria.

Citrobacter diversus = assay: MIC against Gram-negative bacteria: Citrobacter diversus; conditions: 5×10^5 CFU/mL
Description: as §1, §2, §3, §4

Serratia marcescens = assay: MIC against Gram-negative bacteria: Serratia marcescens; conditions: 5×10^5 CFU/mL
Description: as §1, §2, §3, §4

Enterobacter cloacae = assay: MIC against Gram-negative bacteria: Enterobacter cloacae; conditions: 5×10^5 CFU/mL
Description: as §1, §2, §3, §4

Aeromonas hydrophila = assay: MIC against Gram-negative bacteria: Aeromonas hydrophila; conditions: 5×10^5 CFU/mL
Description: as §1, §2, §3, §4

Proteus vulgaris = assay: MIC against Gram-negative bacteria: Proteus vulgaris; conditions: 5×10^5 CFU/mL
Description: as §1, §2, §3, §4

E. coli DH5α = assay: Antibacterial activity: MIC and growth curve against E. coli DH5α in 96-well plate; conditions: minimal inhibitory concentration against E. coli DH5α; 96-well plate, 5×10^5 CFU/mL, 37° C., judged after 8 h
Description: 1. E. coli DH5α was exemplified. E. coli DH5α was streaked and cultured on LB solid medium. Then, a typical clone was picked and inoculated into common LB liquid medium, cultured at 37° C. with shaking at 185 rpm until the logarithmic growth phase was reached (OD600 of about 0.5). The bacterial culture was centrifuged at 4000×g for 3 min, the supernatant was discarded, and the thalli were resuspended with fresh LB medium.
2. The above-mentioned bacterial suspension was diluted and inoculated into a 96-well plate with the total volume of 100 μL per well and a bacterial count of 5×10^5 CFU/mL.
3. The recombinant protein hF VII-EGF1 was added to the above-mentioned wells with the final protein concentration in the well of the highest protein concentration being 50 μg/mL. Basing on this final concentration, a two-fold serial dilution was performed till a protein concentration gradient consisting of 50, 25, and 12.5 μg/mL was set up. Three parallel wells were set up for each concentration in the gradient.
as §4, with “plate was” for “plates were”, “rpm. Samples were taken every 30 min, the absorbance values were determined at 600 nm wavelength under a ultra violet spectrophotometer, and an inhibition curve was plotted.” for “rpm.”
According to the experimental procedures in Example 14, the minimal inhibitory concentrations (MIC, μg/mL) of the other human-originated EGF domain proteins (PRT2 to PRT1498 in Table 1) for E. coli DH5α were determined.

Proteus mirabilis = assay: MIC against Gram-negative bacteria: Proteus mirabilis; conditions: 5×10^5 CFU/mL
Description: as §1, §2, §3, §4

Moraxella catarrhalis = assay: MIC against Gram-negative bacteria: Moraxella catarrhalis; conditions: 5×10^5 CFU/mL
Description: as §1, §2, §3, §4

Pseudomonas aeruginosa = assay: MIC against Gram-negative bacteria: Pseudomonas aeruginosa; conditions: 5×10^5 CFU/mL
Description: as §1, §2, §3, §4

Klebsiella pneumonia = assay: MIC against Gram-negative bacteria: Klebsiella pneumonia; conditions: 5×10^5 CFU/mL
Description: as §1, §2, §3, §4

[1] = 10 h cultivation at 37° C., two-fold serial dilution

| Molecule | MIC against E. coli BL21 (E. coli BL21; 96-well plate, 37° C., 10 h) [µg/mL] | MIC against C. diversus (Citrobacter diversus; 96-well plate, 37° C., 10 h) [µg/mL] | MIC against S. marcescens (Serratia marcescens; 96-well plate, 37° C., 10 h) [µg/mL] | MIC against E. cloacae (Enterobacter cloacae; 96-well plate, 37° C., 10 h) [µg/mL] | MIC against A. hydrophila (Aeromonas hydrophila; 96-well plate, 37° C., 10 h) [µg/mL] | MIC against P. vulgaris (Proteus vulgaris; 96-well plate, 37° C., 10 h) [µg/mL] | MIC (E. coli DH5α) [µg/mL] | MIC against P. mirabilis (Proteus mirabilis; 96-well plate, 37° C., 10 h) [µg/mL] | MIC against M. catarrhalis (Moraxella catarrhalis; 96-well plate, 37° C., 10 h) [µg/mL] | MIC against P. aeruginosa (Pseudomonas aeruginosa; 96-well plate, 37° C., 10 h) [µg/mL] | MIC against K. pneumonia (Klebsiella pneumonia; 96-well plate, 37° C., 10 h) [µg/mL] | also measured |
| --- | --- | --- | --- | --- | --- | --- | --- | --- | --- | --- | --- | --- |
| B1 | 25 | 12.5 | 12.5 | 12.5 | 25 | 25 | 12.5 | 12.5 | 25 | 50 | 25 | – |
| B2 | 25 | 50 | 50 | 12.5 | 25 | 25 | 12.5 | 12.5 | 25 | 50 | 25 | – |
| B3 | 50 | 25 | 25 | 25 | 50 | 50 | 25 | 25 | 12.5 | 25 | 12.5 | – |
| B4 | 50 | 25 | 25 | 25 | 12.5 | 12.5 | 12.5 | 25 | 50 | 12.5 | 50 | – |
| B5 | 50 | 25 | 25 | 25 | 50 | 50 | 25 | 25 | 12.5 | 25 | 12.5 | – |
| B6 | – | – | – | – | – | – | 12.5 | – | – | – | – | MIC against E. coli BL21 (E. coli BL21; E. coli BL21, 10 h cultivation at 37° C.): 50 µg/mL; MIC against C. diversus (Citrobacter diversus; Citrobacter diversus, 10 h cultivation at 37° C.): 50 µg/mL; MIC against S. marcescens (Serratia marcescens; Serratia marcescens, 10 h cultivation at 37° C.): 25 µg/mL; MIC against E. cloacae (Enterobacter cloacae; Enterobacter cloacae, 10 h cultivation at 37° C.): 12.5 µg/mL; MIC against A. hydrophila (Aeromonas hydrophila; Aeromonas hydrophila, 10 h cultivation at 37° C.): 25 µg/mL; MIC against P. vulgaris (Proteus vulgaris; Proteus vulgaris, 10 h cultivation at 37° C.): 50 µg/mL; MIC against P. mirabilis (Proteus mirabilis; Proteus mirabilis, 10 h cultivation at 37° C.): 25 µg/mL; MIC against M. catarrhalis (Moraxella catarrhalis; Moraxella catarrhalis, 10 h cultivation at 37° C.): 12.5 µg/mL; MIC against P. aeruginosa (Pseudomonas aeruginosa; Pseudomonas aeruginosa, 10 h cultivation at 37° C.): 25 µg/mL; MIC against K. pneumonia (Klebsiella pneumonia; Klebsiella pneumonia, 10 h cultivation at 37° C.): 25 µg/mL |
| B7 | 25 | 50 | 50 | 12.5 | 25 | 25 | 12.5 | 12.5 | 25 | 50 | 25 | – |
| B8 | 12.5 | 25 | 25 | 25 | 12.5 | 12.5 | 25 | 25 | 50 | 25 | 50 | – |
| B9 | – | – | – | – | – | – | 12.5 | – | – | – | – | MIC E. coli BL21 (E. coli BL21; [1]): 25 µg/mL; MIC C. diversus (Citrobacter diversus; [1]): 50 µg/mL; MIC S. marcescens (Serratia marcescens; [1]): 25 µg/mL; MIC E. cloacae (Enterobacter cloacae; [1]): 25 µg/mL; MIC A. hydrophila (Aeromonas hydrophila; [1]): 12.5 µg/mL; MIC P. vulgaris (Proteus vulgaris; [1]): 12.5 µg/mL; MIC P. mirabilis (Proteus mirabilis; [1]): 50 µg/mL; MIC M. catarrhalis (Moraxella catarrhalis; [1]): 12.5 µg/mL; MIC P. aeruginosa (Pseudomonas aeruginosa; [1]): 50 µg/mL; MIC K. pneumonia (Klebsiella pneumonia; [1]): 25 µg/mL |
| B10 | 25 | 12.5 | 12.5 | 12.5 | 25 | 25 | 12.5 | 50 | 25 | 100 | 25 | – |
| B11 | 12.5 | 12.5 | 12.5 | 12.5 | 25 | 25 | 50 | 12.5 | 25 | 50 | 25 | – |
